Assay results published in US20030144182A1 (IMMUNEX, published 2003).

What was measured:
CD40/Fc fusion protein [1] = molecular target: T1, CD40/Fc fusion protein (human, UniProt P25942 21-193); assay: BIAcore, CD40/Fc captured by goat anti-human IgG1 Fc; first experiment
T1 construct: extracellular domain; also called s CD40/Fc; C40/Fc
Description: (§1) This example illustrates the binding affinities of several different CD40-L constructs. Affinity experiments were conducted by biospecific interaction analysis (BIA) using a biosensor, an instrument that combines a biological recognition mechanism with a sensing device or transducer. An exemplary biosensor is BIAcore™, from Pharmacia Biosensor AB (Uppsala, Sweden; see Faigerstam L. G., Techniques in Protein Chemistry II, ed. J. J. Villafranca, Acad. Press, NY, 1991). BIAcore™ uses the optical phenomenon surface plasmon resonance (Kretschmann and Raether, Z. Naturforschung, Teil. A 23:2135, 1968) to monitor the interaction of two biological molecules.
(§2) The biosensor chips were coated with goat anti-human IgG₁ Fc, which was used to bind CD40/Fc (prepared as described in Example 1) to the chip. The different constructs of CD40-L were then added at increasing concentrations; the chip was regenerated between the different constructs by the addition of sodium hydroxide. Two separate experiments were performed. […] The resultant data were analyzed to determine the affinity and association rate constants of the different CD40-L constructs. […]

CD40/Fc fusion protein [2] = molecular target: T1, CD40/Fc fusion protein; assay: biosensor (BIAcore), CD40/Fc captured on goat anti-human IgG1 Fc; equilibrium binding curve, left panel
Description: as §1, §2

T1 sequence (P25942 other isoform, or with tags, fused parts or gaps limits assumed): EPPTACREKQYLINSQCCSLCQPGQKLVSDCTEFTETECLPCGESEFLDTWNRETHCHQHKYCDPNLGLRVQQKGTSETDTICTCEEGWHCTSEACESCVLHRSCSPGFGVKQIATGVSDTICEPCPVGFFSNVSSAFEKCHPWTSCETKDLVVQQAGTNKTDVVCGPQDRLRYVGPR

B1: Dimeric murine CD40-L (Fc fusion, not shown: a dimerising Fc or GST)
chain (part 1 of 2): DYKDDDDK
chain (part 2 of 2): GGGGSGGGGSGGGGSSSHRRLDKVEEEVNLHEDFVFIKKLKRCNKGEGSLSLLNCEEMRRQFEDLVKDITLNKEEKKENSFEMQRGDEDPQIAAHVVSEANSNAASVLQWAKKGYYTMKSNLVMLENGKQLTVKREGLYYVYTQVTFCSNREPSSQRPFIVGLWLKPSSGSERILLKAANTHSSSQLCEQQSVHLGGVFELQAGASVFVNVTEASQVIHRVGFSSFGLLKL
notes: also called Murine Dimer
- Site 1 (mol/mol CD40/Fc) (CD40/Fc fusion protein [1]): 0.05 mol/mol CD40/Fc
- Site2 (mol/mol CD40/Fc) (CD40/Fc fusion protein [1]): 0.14 mol/mol CD40/Fc

B2: Trimeric human CD40-L (ligand)
chain: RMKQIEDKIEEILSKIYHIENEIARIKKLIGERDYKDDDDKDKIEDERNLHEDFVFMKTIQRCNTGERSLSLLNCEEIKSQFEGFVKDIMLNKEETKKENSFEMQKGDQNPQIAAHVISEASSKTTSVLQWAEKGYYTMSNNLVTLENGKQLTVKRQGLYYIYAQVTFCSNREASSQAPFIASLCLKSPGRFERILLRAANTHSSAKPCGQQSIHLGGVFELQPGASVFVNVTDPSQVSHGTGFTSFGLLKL
notes: also called trimeric CD40-L; CD40-L trimer
- EC50 (read off the curve) (CD40/Fc fusion protein [2]): ~10 nM
